{
  "source": "the nanobody polyreactivity screen of Harvey et al. (2022)",
  "data": [
    {"experiment": "yeast display, Sf9 membrane polyspecificity reagent, FACS + sequencing; frameworks hold sequencing errors", "how_it_was_run": "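Polyreactivity labels are assigned by the sorting gate from which each nanobody was recovered. The gates were low and high (top ~1%), set on anti-HA fluorescence for expression and streptavidin fluorescence for reagent binding. Before sorting, galactose-induced (36–48 hours) yeast display cells were stained for 1 hour at 4 °C with 10% biotinylated, detergent-solubilized Sf9 membrane reagent.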", "values": [
      {"sequence": "QVQLQDSGGGLVQAGGSLRLSCAASGTISYRYRMGWYRQAPRKEVELVAGIRVGSITYDADSVKGRFTISRDNAKNTVYLQMNSLKPEDIAVYYCAVYQKSYRFFPYWGQGTQVTVSS", "polyreactivity (PSR sort gate)": "high polyreactivity"},
      {"sequence": "QVQLQDSGGVQAGGSLRLSCAASGYISRSDVMGWYRQAPGKERELVATIINGTITYYADSVKGRFPISRDNAKNTVYLQMNSLNPEDTAVQYCAVVQSDTDSLYYWGQGTQVTVSS", "polyreactivity (PSR sort gate)": "low polyreactivity"},
      {"sequence": "QVQLQDSVGCLVQAGGSLRLSCAASGSISIYGYMGWYRQAPGNERELVAAITAGGSTYYADSVKGRFTISRDNAKNTVYLLMKSLKPEDTAVYYCAPYEQRVYDLHYWGQGTQVTVSS", "polyreactivity (PSR sort gate)": "high polyreactivity"},
      {"sequence": "QVQLQECGGGLVQAGGSLRLSCAASGNIFDAYIMGWYRQAPGKERELVASVTDGGSTNYADSVKGRFTISRDNAKNTVYLQMNSLKPEDTAVYYCAAIVYPDILTYFDYDYDYFYWGQGTQVTVGS", "polyreactivity (PSR sort gate)": "low polyreactivity"},
      {"sequence": "QVQLQECGGGLVQAGGSLRLSCAASVNIFDADIMGSYRQAPGKERELVASVTDGGSTNYADSVKGRFTISRDNAKNTVYLQMNSLKPEDTAVYYCAGIVYPDILTFFDYDYDYFYWGQGTQVTVGS", "polyreactivity (PSR sort gate)": "low polyreactivity"},
      {"sequence": "QVQLQECGGGLVQAGGSLRLSCAASVNIFDADIMGWYRQAPGKERELVASVTDGGSTNYADSVKGRFTISRDNAKNTVYLQMNSLKPEDTAVYYCAAIVYPDILTYFEYDYDYFYWGQGTQVTVGS", "polyreactivity (PSR sort gate)": "low polyreactivity"},
      {"sequence": "QVQLQEIGGGLVQAGGSLRLRCAASRNISGSSDLGWYHQAPGKEREFVASITSGGTTYYADSVKGRFTISRDNAKKTVYLQMNSLKAEDTAVYYCAVGDPADAEFGYWGQGTQVTVSS", "polyreactivity (PSR sort gate)": "low polyreactivity"},
      {"sequence": "QVQLQEIGGGLVQAGGSLRLSCAASGYIIPYYSMRWYRQAPGKERGLVACIAAGTTTNFADCVKGRFTISRDNAKNTVYLQMNSLKPEDAAVYFCAALNAFKTGDWYWGQGTQVTVSS", "polyreactivity (PSR sort gate)": "low polyreactivity"},
      {"sequence": "QVQLQERGGGLVQAGGSLLSCAASGTISYYREMGWYRQAPGKERELVAGIGVGTITYYADSVKGRFTISRDNAKNTVYLQMNRLKPEDTAVYFCAAHIDGNDSHAYWGQGTQVTVSS", "polyreactivity (PSR sort gate)": "low polyreactivity"},
      {"sequence": "QVQLQERGGGLVQAGGSLRMSCAASGSIFVSVTMGWYRQAPGKERELVASIGRGSTTNHADSVKGLFTISRDNAKNIVYLLMNSLKPEDTAVYYCAALESYGKYHGYWGQGTQVTVSS", "polyreactivity (PSR sort gate)": "low polyreactivity"},
      {"sequence": "QVQLQERGGGLVQAGGSLRQSCAAIGYIFPYYSMGWYRQATGKERGLVACIAAGTTTNYADSVKGRFTISRDNAINTVYLQMNSLKPEDAAVYYCAALNAFKTGHWYWGQGTQVTVSS", "polyreactivity (PSR sort gate)": "low polyreactivity"},
      {"sequence": "QVQLQESAGGLEQAGGSLRLSCAASAYISDIGTKGWYRQAPRKEREFVATIVVGSTTNYADSVKGRFTISRDNAKNTVYLQPESGRYRGVFLRGWLLPVGKFTYWGQGTQETVSS", "polyreactivity (PSR sort gate)": "low polyreactivity"},
      {"sequence": "QVQLQESAGGLVQAGGSLRLRCSASGYISCDASMGSYRQAPGKERELAASITKGSSTNYADSVKGRFTIRDNAKNTVYLQMNSLKPEDTAVCYCAVTYPYWGDYTYWGQGTQVTVSS", "polyreactivity (PSR sort gate)": "low polyreactivity"},
      {"sequence": "QVQLQESAGGRQPAPELRGERLYFWLLLMGWYRQAPGEERELVAGINDGASTNYADSVKGRFTISRDNARNTVYLKMNSLKPGDTAVYYCAVWQPVLIWFYYWGQGTQVTVSS", "polyreactivity (PSR sort gate)": "high polyreactivity"},
      {"sequence": "QVQLQESCGGLVQEAGSLRLSCAASGNISPPADMGWYRQAPGKQRELVASIGTGGTTNYADSEKGRFTISRDNAKNTVYLQMNSLKPEDSAVYYCNVDIGVYAYESDYWGQGTQVTVSS", "polyreactivity (PSR sort gate)": "low polyreactivity"},
      {"sequence": "QVQLQESGAALVQAGGSLRLSCAASGNIFVDAYMGWYRQAPGKERELVATIAPADSVKGRFTISRDNAKNTVYLQMNRLKPEDTAVYYCAAFTGYSSVFGFWGQGIQVTVSS", "polyreactivity (PSR sort gate)": "high polyreactivity"},
      {"sequence": "QVQLQESGAGLVKAGGSLRLSCAASGNISNHNDMGWYRQAPGKEREFVAGITAGGITNYADSVKRRFTISRDNAKNSVYLQMKSLKPEDTAVYYCAAYPDYDKSYGYWGQGTQATVSS", "polyreactivity (PSR sort gate)": "low polyreactivity"},
      {"sequence": "QVQLQESGAGLVQAGGSLRLICAASGNIFRGDYVGWYHQAPGKEREFVASITGGGNTNFADSVKGRYSISRDNAKKTVYLKMNSLKPEDTAVYYCAVFDAWLARLIFWGQGSQVTVSS", "polyreactivity (PSR sort gate)": "high polyreactivity"},
      {"sequence": "QVQLQESGAGLVQAGVSLRLSCAASGYISTFSSEMGWYRQAPGKDRELVASIAPGCTTSYADSVKGRFTISRDKAKNTVFLQMNSLKPEDTAVYYCAVDYTVPASFGYWGQGTQVTVSS", "polyreactivity (PSR sort gate)": "high polyreactivity"},
      {"sequence": "QVQLQESGGALVQAGGSLRLSCAASGNIYDADIMGWYRQAPGKERELVTSITDGGSTNYADSVKGRFTISRDNAKNTVYLQMNSLKPQDTAVYYCAAIAYPDIPTSFDYNSDYSYWGQGTQVTVSS", "polyreactivity (PSR sort gate)": "low polyreactivity"},
      {"sequence": "QVQLQESGGALVQAGGSLRLSCAASGTISDRAGMGWYRQAPAKNANVATIDRGTNTNYADSVKGRFTISRDNAKNTVYLQMNSLKPEDTAVYNCAADGRYYIYLDYWGQGTQVTVSS", "polyreactivity (PSR sort gate)": "low polyreactivity"},
      {"sequence": "QVQLQESGGCLVQAGGSLRKSCAASGNIFDADIMGWYRQAPGKERELVASITDGRRTNYADSVKGRYTISRDSENNTVYLQLNSLKAEDTAVYYCAAIAYPVVPTYFDYDSDFFHWGQGTQVTVSS", "polyreactivity (PSR sort gate)": "high polyreactivity"},
      {"sequence": "QVQLQESGGDLEQAGGSLRLSCTASGTISDVRVMGWSRQAPGKERELVATISYVTITYYADSVKGRFTISRDSEKHRVSADDEPETGRYRGVLFRYYWGLGTQVTVSS", "polyreactivity (PSR sort gate)": "low polyreactivity"},
      {"sequence": "QVQLQESGGGLEQAGGSLRLSCAASGYISDIGPMGWSRQAPGKEREFVATIVVGSTTNYADSVKGRFTISRDNAKNTVYLQPESGRFRGVLLRGWLLAVGKFTYWGQGTQETVSS", "polyreactivity (PSR sort gate)": "low polyreactivity"},
      {"sequence": "QVQLQESGGGLEQAGGSLRLSCAASGYISDIGTMGWYRQAPAKEREFVATIVVGSTTNYADSVKGRFTISRDNAKNTVYLQPESGRYRGVLLSGWLLAVGKFTYWGQGTQETVSS", "polyreactivity (PSR sort gate)": "low polyreactivity"},
      {"sequence": "QVQLQESGGGLLLAGGSLRLSCSASGNISVYGSMGWYRQAPGKEREFVATIDPGTNTNYADSVKDRFTISRDNAKNTVYLQMNSLKPEDTAVYYCAVEAGSDWPYRYWGQGTQVTVSS", "polyreactivity (PSR sort gate)": "low polyreactivity"},
      {"sequence": "QVQLQESGGGLMQAGGNLRLSCAASGYISTNDDMDWYRQAPGKERELVARIDDGAITNYADSVKGRFTISRDNAKKTVYLQMNSLKPEDTAVYYFAVYSGDDYYHDYWGQGTQVTVSS", "polyreactivity (PSR sort gate)": "low polyreactivity"},
      {"sequence": "QVQLQESGGGLMQAGGSQRLSCAASGSISYYSDMGWYRQSPGKEREFVAGIGYGTTTNYADSVKGRFTTSRDNAKNTVYLQMISMKPEDTAVYYCAAYQGNGYEFYYWGQGTQVTVRS", "polyreactivity (PSR sort gate)": "low polyreactivity"},
      {"sequence": "QVQLQESGGGLMQAGGSQRLSCAASGSITYYSDMGCYRQAPGKELEFVAAIGYGTTTNYADSVKGRFTTSRDNAKYTVYLQMISMKPEDTAVYYCAAYQGKGYEFYYWGQGTQVTVRS", "polyreactivity (PSR sort gate)": "low polyreactivity"},
      {"sequence": "QVQLQESGGGLVKAGGSLRLSCAASGSIFYWPWMGWYRQAPGREREFVATITTGSNTYYADSMKGHLTISRDNARNTVYLQMNSLKPEDTAVYYCAVVGDGELEHRYWGQGTQVTVSS", "polyreactivity (PSR sort gate)": "high polyreactivity"},
      {"sequence": "QVQLQESGGGLVLAGGSLRLSCSASGNISVYGSMGWYRQAPGKEREFVATIDPGTNTNYADSVKDRFTISRDNAKNTVYLQMNSLKPEDTAVYYCAVEAGSDWLYRYWGQGTKVTVSS", "polyreactivity (PSR sort gate)": "low polyreactivity"},
      {"sequence": "QVQLQESGGGLVNAGGSLRLSCAASGTISFINMMGWYRQAPGRERELVASINFGANTNYADSVKGRFTISRDNAKNTVYLQMNSLKPEDTAVYYCAVYDFDAYTLYYWGQGTLVTVSS", "polyreactivity (PSR sort gate)": "high polyreactivity"},
      {"sequence": "QVQLQESGGGLVQACGSQRLSCAASGSISEGQDMGWYRRAPGKEREFVAGIAPGATTYYADSVKGRFTISRDNAKNTVYLQMNSLKPEDTAVYYCAARSVTETDHDYWGQVTQVTVSS", "polyreactivity (PSR sort gate)": "low polyreactivity"},
      {"sequence": "QVQLQESGGGLVQADGSLRLSCAASGSIFGYYYMGWYRQAPGKDRDLVATINICGITNYADSVNGRFTISRDNAKYTVYLQMNSLKPDDTAVYYCAADEFDQRDLGYWGQGTQVSVSS", "polyreactivity (PSR sort gate)": "low polyreactivity"},
      {"sequence": "QVQLQESGGGLVQAGGCLSCTASGTIFGQGDMGWYRQAPGKERELVATINVGASTYYADSVKGRFTISRDKAKNTVYLQKNSLKPDDTAVYYCAVFTDITTYFGYWGQGTQVTVSS", "polyreactivity (PSR sort gate)": "low polyreactivity"},
      {"sequence": "QVQLQESGGGLVQAGGDLRLSCAASGNIFRDYIMGWNPQAPGKEREFVAGIDRGANTNYADSVKGRFTISRDNAKNTVYLQMNSLKPEDTAVYYCAVHTAIVPDFIYWGQGTQVTVSS", "polyreactivity (PSR sort gate)": "low polyreactivity"},
      {"sequence": "QVQLQESGGGLVQAGGILRRSCAACGNIFPSAVMGWYRQALGKEREFVATINSGSNTYYADSVKGRFTISRDNAKNTVYLQMNSLKLEDTAVYYCAAYFKLPAWHTYWGQGTQVTVSS", "polyreactivity (PSR sort gate)": "low polyreactivity"},
      {"sequence": "QVQLQESGGGLVQAGGSLCLSCAASGTIFFDGDMGWNRQAPGKEREFVAAINPGGSAYYADSVKGRLPLAAITHTVYMQMYSLKPEDTAVYYCEAILFDVYGYYYWGQGTNVTVSS", "polyreactivity (PSR sort gate)": "low polyreactivity"},
      {"sequence": "QVQLQESGGGLVQAGGSLLICAASGTISWVDEMGWYRQAPGNERELVAGIAGGGNTNYADSVKGRYTISRDNAKNTVYLEMNSLDTAVYYCAVVGFGRGTHIYWGQGTQVTVSS", "polyreactivity (PSR sort gate)": "high polyreactivity"},
      {"sequence": "QVQLQESGGGLVQAGGSLLLSCAASGSSYDDTYMGWYRQAPGKERELVATIDSGSTTNYADSVKGRNTISRDNAKYTLYLQMNSLKPEDTAVYYCAAADSHIDYFDYWGQGTQVTVSS", "polyreactivity (PSR sort gate)": "low polyreactivity"},
      {"sequence": "QVQLQESGGGLVQAGGSLLSCAASGTISSYREMGWYRQAPGKELELVAGIGVGTITYYADSVKGRFTISRDNAKNTVYLQMNSLKPEDTAVYYCAAHIDGNDSHAYWGQGTQVTVSS", "polyreactivity (PSR sort gate)": "low polyreactivity"}
    ]}
  ]
}
